Experimental data published in the RNAGym collection of RNA variant scans (doi:10.7554/elife.90254).

B1: LINE1-mini (parent)
chain: GGCAGAGCUCAACACAGCGUGGCAAAGUGGCUGUGGCUAGACUGCC

Variants of: B1
Assay: self-cleavage, relative activity (ratio to wild type); higher = more cleavage; in vitro, sequencing; the parent is a self-cleaving ribozyme

| Variant | self-cleavage |
| --- | --- |
| C37A A39C | 0.12 |
| C37A A39G | 0.05 |
| C37A A39U | 0.22 |
| C37A C46A | 0.05 |
| C37A C46G | 0.06 |
| C37A C46U | 0.04 |
| C37G C42U | 0.02 |
| C37G C42G | 0.02 |
| C37G C42A | 0.09 |
| G36U C46G | 0.08 |
| G36U C46U | 0.1 |
| G36U C46A | 0.1 |
| G36U G40U | 0.19 |
| G36U G40A | 0.13 |
| G36U G40C | 0.09 |
| C37G A41G | 0.03 |
| C37G A41C | 0.02 |
| C37G A41U | 0.03 |
| G40A G44C | 0.08 |
| G40A G44A | 0.19 |
| G40A G44U | 0.08 |
| G36C C37U | 0.06 |
| G36C C37G | 0.07 |
| G36C C37A | 0.1 |

| Variant | self-cleavage |
| --- | --- |
| C37G C45U | 0.03 |
| C37G C45A | 0.03 |
| C37G C45G | 0.08 |
| G40A C45G | 0.13 |
| G40A C45A | 0.12 |
| G40A C45U | 0.16 |
| G40U C46A | 0.12 |
| G36C C45A | 0.07 |
| G36C C45G | 0.04 |
| G36C C45U | 0.29 |
| U38A G44U | 0.17 |
| U38A G44A | 0.28 |
| U38A G44C | 0.09 |
| A39U G40A | 0.17 |
| A39U G40C | 0.18 |
| A39U G40U | 0.14 |
| A39G C46G | 0.08 |
| A39G C46A | 0.14 |
| A39G C46U | 0.07 |
| G36C A39U | 0.23 |
| G36C A39G | 0.07 |
| G36C A39C | 0.05 |
| A39U C46G | 0.5 |
| A39U C46U | 0.46 |

| Variant | self-cleavage |
| --- | --- |
| A39U C46A | 0.75 |
| A39C C45A | 0.14 |
| A39C C45G | 0.12 |
| A39C C45U | 0.24 |
| U38A G40A | 0.17 |
| U38A G40C | 0.09 |
| U38A G40U | 0.18 |
| G36C C42G | 0.07 |
| G36C C42U | 0.09 |
| G36C C42A | 0.05 |
| G40A C46A | 0.14 |
| G40A C46G | 0.11 |
| G40A C46U | 0.14 |
| U38A A41C | 0.04 |
| U38A A41G | 0.14 |
| U38A A41U | 0.1 |
| C37U A39C | 0.14 |
| C37U A39U | 0.04 |
| C37U A39G | 0.02 |
| A39C U43C | 0.08 |
| A39C U43A | 0.04 |
| G40A A41U | 0.26 |
| G40A A41C | 0.13 |
| G40A A41G | 0.08 |

| Variant | self-cleavage |
| --- | --- |
| A39C G40A | 0.08 |
| A39C G40C | 0.07 |
| A39C G40U | 0.11 |
| C37G G44U | 0.07 |
| C37G G44A | 0.04 |
| C37G G44C | 0.03 |
| G40U A41U | 0.37 |
| G40U A41C | 0.2 |
| G40U A41G | 0.09 |
| U38A C42A | 0.1 |
| U38A C42G | 0.07 |
| U38A C42U | 0.21 |
| U38G A39G | 0.02 |
| U38G A39C | 0.1 |
| U38G A39U | 0.13 |
| A39C A41C | 0.62 |
| A39C A41U | 0.4 |
| A39C A41G | 0.1 |
| U38C C42A | 0.07 |
| U38C C42G | 0.15 |
| U38C C42U | 0.07 |
| A39U G44A | 0.18 |
| A39U G44U | 0.12 |
| A39U G44C | 0.09 |

| Variant | self-cleavage |
| --- | --- |
| U38A C45U | 0.59 |
| U38A C45A | 0.2 |
| U38A C45G | 0.26 |
| A39G G44U | 0.22 |
| A39G G44A | 0.16 |
| A39G G44C | 0.09 |
| C37A A41G | 0.12 |
| C37A A41C | 0.03 |
| C37A A41U | 0.08 |
| A39C C46U | 0.2 |
| A39C C46A | 0.13 |
| A39C C46G | 0.17 |
| C37G A39C | 0.06 |
| C37G A39G | 0.02 |
| C37G A39U | 0.08 |
| G36C C46A | 0.13 |
| G36C C46G | 0.08 |
| G36C C46U | 0.05 |
| G40A C42U | 0.09 |
| G40A C42A | 0.1 |
| G40A C42G | 0.09 |
| C37A C45G | 0.17 |
| C37A C45U | 0.08 |
| C37A C45A | 0.19 |

| Variant | self-cleavage |
| --- | --- |
| G36C | 0.1 |
| G36U | 0.08 |
| U38G C46U | 0.04 |
| U38G C46A | 0.02 |
| U38G C46G | 0.02 |
| U38C A39G | 0.06 |
| U38C A39C | 0.1 |
| U38C A39U | 0.7 |
| A39U C42G | 0.03 |
| A39U C42A | 0.1 |
| A39U C42U | 0.23 |
| A39U U43A | 0.06 |
| A39U U43G | 0.02 |
| A39U U43C | 0.06 |
| U38A A39C | 0.49 |
| U38A A39U | 0.85 |
| U38A A39G | 0.25 |
| U38G U43G | 0.02 |
| U38G U43C | 0.05 |
| U38G U43A | 0.02 |
| G40C C45A | 0.09 |
| G40C C45U | 0.1 |
| G40C C45G | 0.05 |
| G36U G44A | 0.06 |

| Variant | self-cleavage |
| --- | --- |
| G36U G44C | 0.08 |
| G36U G44U | 0.09 |
| G40U | 0.15 |
| G40C | 0.09 |
| G40A | 0.14 |
| A39G C42G | 0.03 |
| A39G C42A | 0.09 |
| A39G C42U | 0.12 |
| C37A G44A | 0.13 |
| C37A G44C | 0.07 |
| C37A G44U | 0.18 |
| U38C U43G | 0.07 |
| U38C U43A | 0.04 |
| U38C U43C | 0.11 |
| U38C C45U | 1.38 |
| U38C C45G | 0.47 |
| U38C C45A | 0.35 |
| A39G A41U | 0.07 |
| A39G A41G | 0.01 |
| A39G A41C | 0.03 |
| G36C A41C | 0.05 |
| G36C A41G | 0.11 |
| G36C A41U | 0.14 |
